Measurements published in the supplement of paper PMC9170038.

Test system: MS2 coat protein
Assay: apparent KD of MS2 coat protein; designed switch direction (-1 OFF switch, 1 ON switch): -1; higher = weaker reporter binding
Summary of the method: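 For each design, the apparent KD is the median over clusters of curves fitted to normalised cluster fluorescence. Clusters held RNA switches with common flanks, transcribed on Illumina chips by stalled E. coli RNA polymerase. These were titrated with SNAP-549-labelled MS2 coat protein, doubling from 0.7 or 1.5 nM to 3 µM, without input, with 200 uM small-molecule ligand, or with an oligonucleotide input.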

[1] = Eterna round: R95, input ligand: FMN 200 uM
[2] = Eterna round: R95, input ligand: microRNA oligo, concentration not stated
[3] = Eterna round: R95, input ligand: none
[4] = input ligand: microRNA oligo, concentration not stated

Sequence	apparent KD of MS2 coat protein [1] [µM]	apparent KD of MS2 coat protein [2] [µM]	apparent KD of MS2 coat protein [3] [µM]	apparent KD of MS2 coat protein (input ligand: FMN 200 uM) [µM]	apparent KD of MS2 coat protein (input ligand: none) [µM]	apparent KD of MS2 coat protein [4] [µM]
UUGGAGAUAGGAUAUACGAGGAGAGUUGAGGGAACGCGAUGACAUGAGGAUCACCCAUGUAGAAGGAUCAGGAG [JR_Exclu2_Sub070] (puzzle: Exclusion 2)	0.0282	0.036	0.0403			
UUGGUGUCAGGAUAUGCUUAAUGUAUUUUAUUAUAAUAUAUACAUGAGGAUCACCCAUGUAGAAGGGACAUUGU [LRO-Excl2-08-Fireball XL5] (Eterna round: R97, puzzle: Exclusion 2)				0.125	0.154	
UUGGUUAUCUAUGGAAGUAACAUGAGGAUCACCCAUGUAUGUCUUGUUUUUUGUUCGUCAUAGGCCUUUUGUUUGGA [JR_SV3TOV1_Sub023] (puzzle: Sensor v3, turn-off variant 1)	0.0249	0.0249	0.0303			
UUGGUUGUGGUAGGAUAUCCGUUGGAAACCGUCGGAGAAGGACCACAGUCACUGGGUCUUUGUCUGGUGGAGUGGAAGAACCAU [pwkr exNG1 F6.20] (Eterna round: R96, puzzle: Exclusion NG 1)				0.283	0.218	0.157
UUGUACAGAGGAUAUACAUGAGGAUCACCCAUGUGUUUCAGCUAGGAGACUAGCGAAAGUAGAAGGCUGUACUC [salish99_ex3_r4_015] (Eterna round: R97, puzzle: Exclusion 3)				0.0239	0.0111	
UUGUAGGGAGGAUAUCAGAAGCUCCACAUGAGGAUCACCCAUGUAGCCGCUGCUGGAUUCUGAGAAGGCUUGGGUU [Eternabot (L2) Solution 8] (Eterna round: R97, puzzle: Exclusion 5)				0.0588	0.0583	
UUGUGCACGCUGCGAUCCUACAUGAGGAUCACCCAUGUGGUCUGGUGGCGUGGGUCACCGGACUUGGCUCGUCUUGC [salish99_S_TOV1_R5_073] (Eterna round: R97, puzzle: Sensor, turn-off variant 1)				0.0288	0.0286	
UUGUUAUAUGAAGGAUAUACUUAACAUGAGGAUCACCCAUGUGGUGUUGUGAGUGAGUGAGUUUAGUAGAAGGUCAAGUAUUUU [JMF's solution 52] (Eterna round: R96, puzzle: Exclusion NG 2)				0.509	0.377	0.368
UUUAAAUGAGGAUAUAGGAUCUUAGACAUGAGGAUCACCCAUGUGAAAUCAGACCUAGUCCUAGAAGGCGUAUGAC [Eternabot (L1) Solution 100] (Eterna round: R97, puzzle: Exclusion 5)				0.0135	0.0124	
UUUAAUCAUGUAGGAUAUGCGUGGCGAAGCUAUGCAGAAGGACAUGAGGAUCACCCAUGUUCUAGCGUCUGCGUACAGAUGCGG [13th something] (Eterna round: R96, puzzle: Exclusion NG 1)				0.229	0.0399	0.0353
UUUAAUCAUGUAGGAUAUGCGUGGCGAAGCUAUGCAGAAGGACAUGAGGAUCACCCAUGUUCUAGCGUCUGCGUACAGAUGCUA [JL ENG1 1.36] (Eterna round: R96, puzzle: Exclusion NG 1)				0.334	0.047	0.033
UUUAAUCGUGACAUGGGUGACAUGAGGAUCACCCAUGUCACAAGCUUUUUGCUCGUCUUAUAAUUAACCCAUGUCAC [LRO Sensor-off var1-11 mod of Stov1-13-A1 by Brourd] (Eterna round: R97, puzzle: Sensor, turn-off variant 1)				0.0151	0.0156	
UUUAAUUUUUUUUUUUUACAAGCUUUUUGCUCGUCUUAUACAUGAGGAUCACCCAUGUAAAUGAGGGAUAAAUUAUC [JMF 38] (puzzle: Sensor v3, turn-off variant 2)	0.0154	0.0213	0.0157			
UUUAAUUUUUUUUUUUUACAAGCUUUUUGCUCGUCUUAUACAUGAGGAUCACCCAUGUAGGUGAGGAGUAAAUUAUC [JMF 62] (puzzle: Sensor v3, turn-off variant 2)	0.0155	0.111	0.0148			
UUUAAUUUUUUUUUUUUACAAGCUUUUUGCUCGUCUUAUACAUGAGGAUCACCCAUGUAGGUGGGAGAUAAAUUAUC [JMF 23] (puzzle: Sensor v3, turn-off variant 2)	0.0878	0.392	0.131			
UUUAAUUUUUUUUUUUUACAAGCUUUUUGCUCGUCUUAUACAUGAGGAUCACCCAUGUGGAUGGAAGAUAAAUUAUC [JMF 9] (puzzle: Sensor v3, turn-off variant 2)	0.0162	0.0186	0.0165			
UUUAAUUUUUUUUUUUUACAAGCUUUUUGCUCGUCUUAUACAUGAGGAUCACCCAUGUGGGUAAGAGAUAAAUUAUC [JMF 13] (puzzle: Sensor v3, turn-off variant 2)	0.0249	0.0363	0.0278			
UUUAAUUUUUUUUUUUUACAAGCUUUUUGCUCGUCUUAUACAUGAGGAUCACCCAUGUGGGUAGAAAGUAAAUUAUC [JMF 46] (puzzle: Sensor v3, turn-off variant 2)	0.0137	0.0436	0.0154			
UUUAAUUUUUUUUUUUUACAAGCUUUUUGCUCGUCUUAUACAUGAGGAUCACCCAUGUGGGUAGAGAGUAAAUUAUC [JMF 59] (Eterna round: R96, puzzle: Sensor v3, turn-off variant 2)				0.0211	0.0193	0.102
UUUAAUUUUUUUUUUUUACAAGCUUUUUGCUCGUCUUAUACAUGAGGAUCACCCAUGUGGGUAGAGAGUAAAUUAUC [JMF 59] (puzzle: Sensor v3, turn-off variant 2)	0.0167	0.0806	0.0161			
UUUAAUUUUUUUUUUUUACAAGCUUUUUGCUCGUCUUAUACAUGAGGAUCACCCAUGUGGGUGAGGGAUAAAUUAUC [JMF 42] (puzzle: Sensor v3, turn-off variant 2)	0.0163	0.0272	0.574			
UUUAAUUUUUUUUUUUUACAAGCUUUUUGCUCGUCUUAUACAUGAGGAUCACCCAUGUGGGUGGAGAGUAAAUUAUC [JMF 60] (puzzle: Sensor v3, turn-off variant 2)	0.0454	0.0471	0.056			
UUUAAUUUUUUUUUUUUACAAGCUUUUUGCUCGUCUUAUACAUGAGGAUCACCCAUGUGGGUGGGAGGUAAAUUAUC [JMF 78] (puzzle: Sensor v3, turn-off variant 2)	0.0637	0.0261	0.0826			
UUUACAAGCUAUAGAUCCCACAUGAGGAUCACCCAUGUUCCUGGCCGUGAGGCUAGGUAAACUAUUGCUCGUCUUAU [JL TOV1 3.66] (Eterna round: R97, puzzle: Sensor, turn-off variant 1)				0.252	0.294	
